Source: patent US20140294825A1 (JN BIOSCIENCES, published 2014)
Values belong to the binder of their own block, whether it stands above or below them.

Legend:
human FcRn [1] = molecular target: T1, human FcRn (human, UniProt P55899 24-365; P61769 21-119); assay: flow cytometry on NS0 cells expressing human FcRn, 1 µg/ml antibody, pH 6.0 and 7.5
T1 construct: whole, on cells; Heterodimer stably expressed on the surface of NS0 cells; also called neonatal Fc receptor; NS0/FcRn cells
Protocol: (§1) The ability of Ch9G6-IgG1, Ch9G6-IgG1/M and Ch9G6-MVIgG1 antibodies to bind to FcRn in a pH-dependent manner was analyzed by flow cytometry using NS0 cells expressing human FcRn on the cell surface (NS0/FcRn cells). NS0/FcRn transfectants stably expressing human FcRn, a heterodimer composed of the FcRn α chain and β2-microglubulin, on the cell surface was generated following the general procedure described by Hinton et al. (J. Biol. Chem. 279:6213-6216 2004), which is incorporated herein by reference. Ch9G6-IgG1, Ch9G6-IgG1/M and Ch9G6-MVIgG1 at 1 μg/ml were separately incubated with NS0/FcRn cells at pH 6.0 and 7.5 at the primary staining step following the procedure described by Hinton et al. (supra). Antibodies binding to FcRn were detected using PE-labeled goat polyclonal anti-human gamma chain antibody (for Ch9G6-IgG1 and no antibody control) or PE-labeled goat polyclonal anti-human μ chain antibody (for Ch9G6-IgG1/M, Ch9G6-MVIgG1 and no antibody control) at the secondary staining step.
(§2) The ability of Ch9G6-IgG3D, Ch9G6-IgG3D/M and Ch9G6-MVIgG3D antibodies to bind to FcRn in a pH-dependent manner was analyzed by flow cytometry using NS0 cells expressing human FcRn on the cell surface (NS0/FcRn cells). Ch9G6-IgG3D, Ch9G6-Ig3D/M and Ch9G6-MVIgG3D at 1 μg/ml were separately incubated with NS0/FcRn cells at pH 6.0 and 7.5 at the primary staining step as described in Example 4. Antibodies binding to FcRn were detected using PE-labeled goat polyclonal anti-human gamma chain antibody (for Ch9G6-IgG3D and no antibody control) or PE-labeled goat polyclonal anti-human μ chain antibody (for Ch9G6-IgG3D/M, Ch9G6-MVIgG3D and no antibody control) at the secondary staining step.

[2] = molecular target: T2, recombinant human CD30 extracellular region fused at the C-terminus to the Fc region of human γ1 chain (human); assay: bridging ELISA: CD30-Fc coated, supernatant, then CD79a-Cλ in solution, anti-human λ chain HRP detection; no signal means the anti-CD79a antibody was not captured on CD30-Fc
T2 construct: also called CD30-Fc

[3] = molecular target: T3, recombinant human CD30 extracellular region fused at the C-terminus to the human λ2 constant region (human); assay: bridging ELISA: CD79a-Fc coated, supernatant, then CD30-Cλ in solution, anti-human λ chain HRP detection; no signal means the anti-CD79a antibody did not hold CD30-Cλ
T3 construct: Cysteine at the second position from the carboxyl terminus of the constant region changed to serine; also called CD30-Cλ

human CD16 = molecular target: T4, human CD16 (human, UniProt P08637 17-254); assay: flow cytometry on HEK293 cells transiently expressing human CD16, PE anti-human µ heavy chain detection
T4 construct: whole, on cells; also called Fcγ receptor type III

Protein G = molecular target: T5, Protein G (Streptococcal, UniProt P19909 303-497); assay: Protein G Sepharose column, culture supernatant
T5 construct: Commercial resin; also called Protein G Sepharose column

human FcRn [4] = molecular target: T1, human FcRn; assay: flow cytometry on NS0 cells expressing human FcRn, pH 6.0 and 7.5, PE anti-human µ chain detection
Protocol: as §1, with “Ch9G6-IgG1, Ch9G6-IgG1/M and Ch9G6-MVIgG1 at 1 μg/ml were separately incubated with NS0/FcRn cells at pH 6.0 and 7.5 at the primary staining step following the procedure described by Hinton et al. (supra).” left out
as §2, with “Ch9G6-IgG3D, Ch9G6-Ig3D/M and Ch9G6-MVIgG3D at 1 μg/ml were separately incubated with NS0/FcRn cells at pH 6.0 and 7.5 at the primary staining step as described in Example 4.” left out

T5 sequence (P19909 303-497): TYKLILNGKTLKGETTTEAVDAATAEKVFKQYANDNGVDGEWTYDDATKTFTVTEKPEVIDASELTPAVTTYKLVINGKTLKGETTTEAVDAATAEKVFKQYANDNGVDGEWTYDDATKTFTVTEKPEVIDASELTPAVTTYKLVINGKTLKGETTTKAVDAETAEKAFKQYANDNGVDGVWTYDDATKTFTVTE
T4 sequence (P08637 17-254): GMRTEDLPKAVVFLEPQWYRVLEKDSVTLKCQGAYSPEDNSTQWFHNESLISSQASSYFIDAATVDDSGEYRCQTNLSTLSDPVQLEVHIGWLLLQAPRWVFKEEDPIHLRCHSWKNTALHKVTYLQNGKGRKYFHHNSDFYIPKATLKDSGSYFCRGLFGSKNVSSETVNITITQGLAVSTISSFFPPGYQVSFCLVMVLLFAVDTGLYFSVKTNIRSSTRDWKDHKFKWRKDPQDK
T2 sequence (chain, as listed by the source limits assumed): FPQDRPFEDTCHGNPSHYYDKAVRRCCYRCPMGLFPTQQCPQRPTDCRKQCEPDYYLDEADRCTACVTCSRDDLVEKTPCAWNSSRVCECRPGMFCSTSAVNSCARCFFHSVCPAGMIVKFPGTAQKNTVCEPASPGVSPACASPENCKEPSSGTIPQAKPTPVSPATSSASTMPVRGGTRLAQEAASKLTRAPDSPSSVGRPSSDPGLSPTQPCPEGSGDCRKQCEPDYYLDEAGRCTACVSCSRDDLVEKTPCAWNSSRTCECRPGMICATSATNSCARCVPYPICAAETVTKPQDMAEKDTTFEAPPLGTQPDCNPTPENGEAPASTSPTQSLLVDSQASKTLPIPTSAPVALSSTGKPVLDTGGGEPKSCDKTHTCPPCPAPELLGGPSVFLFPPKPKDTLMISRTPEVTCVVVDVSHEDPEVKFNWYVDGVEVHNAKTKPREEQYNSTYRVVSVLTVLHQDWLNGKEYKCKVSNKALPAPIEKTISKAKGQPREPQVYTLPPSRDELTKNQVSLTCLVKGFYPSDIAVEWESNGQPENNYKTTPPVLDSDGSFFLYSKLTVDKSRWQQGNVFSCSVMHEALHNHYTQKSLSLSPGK
T3 sequence (chain, as listed by the source limits assumed): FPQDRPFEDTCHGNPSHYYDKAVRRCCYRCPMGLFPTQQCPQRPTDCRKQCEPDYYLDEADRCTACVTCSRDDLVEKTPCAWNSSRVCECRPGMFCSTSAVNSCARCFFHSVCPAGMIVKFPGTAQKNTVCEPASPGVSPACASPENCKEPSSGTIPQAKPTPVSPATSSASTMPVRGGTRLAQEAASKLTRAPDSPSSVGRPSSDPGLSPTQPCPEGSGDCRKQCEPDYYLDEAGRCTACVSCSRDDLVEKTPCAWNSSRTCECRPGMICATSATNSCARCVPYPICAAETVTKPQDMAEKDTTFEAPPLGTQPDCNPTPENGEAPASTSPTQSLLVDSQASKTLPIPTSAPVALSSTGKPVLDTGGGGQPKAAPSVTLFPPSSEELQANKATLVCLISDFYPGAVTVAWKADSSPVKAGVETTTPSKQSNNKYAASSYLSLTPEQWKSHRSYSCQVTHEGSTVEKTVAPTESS

B1: Ch9G6-MVIgG3D (antibody)
heavy: QVQLQQSGPELVKPGASVKISCKASGYTFSTSWMNWVKQRPGQGLEWIGRIYPGDGDTNYNGKFKGKATLTADKSSNTAYMQLSSLTSVDSAVYFCERFYYGNTFAMDYWGQGTSVTVSSASTKGPSVFPLAPCSRSTSGGTAALGCLVKDYFPEPVTVSWNSGALTSGVHTFPAVLQSSGLYSLSSVVTVPSSSLGTQTYTCNVNHKPSNTKVDKRVEPKSCDTPPPCPRCPAPELLGGPSVFLFPPKPKDTLMISRTPEVTCVVVDVSHEDPEVQFKWYVDGVEVHNAKTKPREEQYNSTFRVVSVLTVLHQDWLNGKEYKCKVSNKALPAPIEKTISKTKGQPREPQVYTLPPSREEMTKNQVSLTCLVKGFYPSDIAVEWESSGQPENNYNTTPPMLDSDGSFFLYSKLTVDKSRWQQGNIFSCSVMHEALHNRFTQKSLSLSPGKDQDTAIRVFAIPPSFASIFLTKSTKLTCLVTDLTTYDSVTISWTRQNGEAVKTHTNISESHPNATFSAVGEASICEDDWNSGERFTCTVTHTDLPSPLKQTISRPKGVALHRPDVYLLPPAREQLNLRESATITCLVTGFSPADVFVQWMQRGQPLSPEKYVTSAPMPEPQAPGRYFAHSILTVSEEEWNTGETYTCVVAHEALPNRVTERTVDKSTGKPTLYNVSLVMSDTAGTCY
light: DVLMTQIPLSLPVSLGDQASISCRSSQSIVHSNGNTYLEWYLQKPGQSPKLLIYKVSNRFSGVPDRFSGSGSGTDFTLKISRVEAEDLGVYYCFQGSHVPFTFGSGTKLEIKRTVAAPSVFIFPPSDEQLKSGTASVVCLLNNFYPREAKVQWKVDNALQSGNSQESVTEQDSKDSTYSLSSTLTLSKADYEKHKVYACEVTHQGLSSPVTKSFNRGEC
notes: Pentamer or hexamer of the H2L2 unit in native form (NS0 cells, Protein G purified); also called multivalent IgG3 antibody
binding result (human FcRn [1]): binds

B5: Ch9G6-IgG3D/M (antibody)
heavy: QVQLQQSGPELVKPGASVKISCKASGYTFSTSWMNWVKQRPGQGLEWIGRIYPGDGDTNYNGKFKGKATLTADKSSNTAYMQLSSLTSVDSAVYFCERFYYGNTFAMDYWGQGTSVTVSSASTKGPSVFPLAPCSRSTSGGTAALGCLVKDYFPEPVTVSWNSGALTSGVHTFPAVLQSSGLYSLSSVVTVPSSSLGTQTYTCNVNHKPSNTKVDKRVEPKSCDTPPPCPRCPDQDTAIRVFAIPPSFASIFLTKSTKLTCLVTDLTTYDSVTISWTRQNGEAVKTHTNISESHPNATFSAVGEASICEDDWNSGERFTCTVTHTDLPSPLKQTISRPKGVALHRPDVYLLPPAREQLNLRESATITCLVTGFSPADVFVQWMQRGQPLSPEKYVTSAPMPEPQAPGRYFAHSILTVSEEEWNTGETYTCVVAHEALPNRVTERTVDKSTGKPTLYNVSLVMSDTAGTCY
light: B1 light
notes: NS0 cells, purified on anti-human IgM agarose; mixture of species (650, 180, 90 kDa peaks); also called Ch9G6-Ig3D/M
binding result (human CD16): no binding (tested: 1 µg/ml)
binding result (Protein G): no binding
binding result (human FcRn [4]): no binding (tested: 1 µg/ml)

Now from value to binder:

binding result [2]: no binding
binding result (human FcRn [1]): binds
binding result [3]: no binding
B2: Ch9G6-MVIgG1 (antibody)
heavy: not shown
light: B1 light
notes: also called multivalent anti-CD79a IgG1 antibody

binding result (human FcRn [1]): binds
B3: Ch9G6-IgG1 (antibody)
heavy: not shown
light: B1 light
notes: also called chimeric IgG1 form of the mouse anti-human CD79a monoclonal antibody 9G6

binding result (human FcRn [1]): binds
B4: Ch9G6-IgG3D (antibody)
heavy: QVQLQQSGPELVKPGASVKISCKASGYTFSTSWMNWVKQRPGQGLEWIGRIYPGDGDTNYNGKFKGKATLTADKSSNTAYMQLSSLTSVDSAVYFCERFYYGNTFAMDYWGQGTSVTVSSASTKGPSVFPLAPCSRSTSGGTAALGCLVKDYFPEPVTVSWNSGALTSGVHTFPAVLQSSGLYSLSSVVTVPSSSLGTQTYTCNVNHKPSNTKVDKRVEPKSCDTPPPCPRCPAPELLGGPSVFLFPPKPKDTLMISRTPEVTCVVVDVSHEDPEVQFKWYVDGVEVHNAKTKPREEQYNSTFRVVSVLTVLHQDWLNGKEYKCKVSNKALPAPIEKTISKTKGQPREPQVYTLPPSREEMTKNQVSLTCLVKGFYPSDIAVEWESSGQPENNYNTTPPMLDSDGSFFLYSKLTVDKSRWQQGNIFSCSVMHEALHNRFTQKSLSLSPGK
light: B1 light
notes: NS0 cells, Protein G purified; monomer of about 150 kDa; also called chimeric anti-CD79a IgG3 monoclonal antibody (first, second and third hinge regions eliminated)
